Biological target: pSTAT3 (tyrosine-phosphorylated STAT3) (UniProt P40763)
Experiment: SPR
Conditions: PS x3 at 5' end of sense and 3' end of antisense; strands linked at one end by C-18 (18-atom hexa-ethyleneglycol) spacers; Langmuir 1:1, 4 C, 20 mM HEPES pH 7.0, 200 mM NaCl, 10 mM MgCl2

pSTAT3 (tyrosine-phosphorylated STAT3), sequence (P40763 whole entry): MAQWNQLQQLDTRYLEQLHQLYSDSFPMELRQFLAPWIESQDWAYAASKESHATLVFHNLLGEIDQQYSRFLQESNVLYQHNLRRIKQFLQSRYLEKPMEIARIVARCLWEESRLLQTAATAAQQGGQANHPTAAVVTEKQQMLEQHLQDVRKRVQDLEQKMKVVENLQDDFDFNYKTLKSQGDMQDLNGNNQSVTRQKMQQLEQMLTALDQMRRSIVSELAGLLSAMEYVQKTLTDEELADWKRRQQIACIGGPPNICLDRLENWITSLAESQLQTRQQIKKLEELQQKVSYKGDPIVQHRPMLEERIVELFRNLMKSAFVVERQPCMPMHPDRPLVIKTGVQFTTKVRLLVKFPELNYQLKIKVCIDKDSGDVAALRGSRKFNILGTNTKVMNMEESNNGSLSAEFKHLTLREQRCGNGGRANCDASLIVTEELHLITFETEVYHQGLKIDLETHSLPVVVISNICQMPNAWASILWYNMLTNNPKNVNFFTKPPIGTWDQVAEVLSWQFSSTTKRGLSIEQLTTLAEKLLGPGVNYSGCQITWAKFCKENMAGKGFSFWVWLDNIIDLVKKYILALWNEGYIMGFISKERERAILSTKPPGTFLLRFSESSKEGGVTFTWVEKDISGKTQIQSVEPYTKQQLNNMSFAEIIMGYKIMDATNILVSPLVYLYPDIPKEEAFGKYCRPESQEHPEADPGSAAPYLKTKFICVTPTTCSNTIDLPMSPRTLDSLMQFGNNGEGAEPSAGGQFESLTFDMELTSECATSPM

CATTTCCCGTAAATC (double strand) [DS18] showed a Kd of 142 nM.

Source: US20120288536
